From PMC4136698

Target: SNAP tag–polyproline peptide fusion (…)
Test: pull-down

Substance: Src^Y527F (from UniProt P00523 84-533) (enzyme)
- percent of kinase retained by the immobilized SH3 domain ligand: 74%
- percent of total kinase retained on beads: 11%
